Laboratory results as given in article PMC4789767, “Application of linker technique to trap transiently interacting protein complexes for structural studies” (Journal of Biological Methods, 2016).

Molecular target: T1, Calmodulin (CaM), wild type, full length (UniProt P0DP26 1-149)
T1 construct: Used without calcium (buffer with 2 mM EGTA); also called WT CaM; apo-CaM; source: purified, as described previously [19]
Assay: ITC; VP-ITC; 150 µM CaM (WT or mutant) in the syringe, 10 µM full-length Nm/Ng (WT or mutant) in the cell; Buffer A (20 mM imidazole pH 8.0, 100 mM NaCl, 2 mM EGTA); 25°C; 30 injections of 10 µl
Conditions: both partners purified

- binding result: binds
B1: Neuromodulin (Nm), wild type, full length (natural protein)
chain: MLCCMRRTKQVEKNDEDQKIEQDGVKPEDKAHKAATKIQASFRGHITRKKLKGEKKGDAPAAEAEAKEKDDAPVADGVEKKEGDGSATTDAAPATSPKAEEPSKAGDAPSEEKKGEGDAAPSEEKAGSAETESAAKATTDNSPSSKAEDGPAKEEPKQADVPAAVTDAAATTPAAEDAATKAAQPPTETAESSQAEEEKDAVDEAKPKESARQDEGKEDPEADQEHA
notes: also called WT Nm; source: purified, as described previously [19]
